In patent publication US20140363434A1 (COMPLIX, published 2014):

What was measured:
[1] = molecular target: T1, GST-tagged recombinant human MCL-1 (residues 172 to 327) (human, UniProt Q07820 172-327); assay: ELISA: Alphabody (500 nM) captured by anti-V5 antibody, five-fold dilutions of GST-MCL-1, anti-GST-HRP detection; printed as 'binding affinity'
T1 construct: Produced in E. coli and purified by the GST tag; also called recombinant MCL-1
Protocol: (§1) Alphabody (500 nM) was captured by immobilized anti-V5 antibody (5 microg/ml) to a microtiterplate. Binding of five-fold dilutions of Glutathione S transferase (GST)-tagged recombinant BCL-2 family proteins MCL-1 (FIG. 26A), BCL-XL (FIG. 26B) and BCL-2a (FIG. 26C) was detected using a anti-GST antibody conjugated to Horse Radish Peroxidase. Plates were read at 492 nm and 630 nm.
(§2) Maxisorp Nunc plates were coated with 100 microl anti-V5 antibody (5 microg/ml) in carbonate buffer pH 9.6 overnight at 4° C. The next day, the plates were washed 3 times with Tris Buffered Saline containing 0.05% Tween 20 (TBST) and blocked with TBS containing 0.1% BSA and 0.5% gelatin for 2 h at 37° C. […] Plates were washed 10 times with TBST and five-fold dilutions of Glutathione S transferase (GST) tagged recombinant BCL-2 family proteins (MCL-1, BCL-XL and BCL-2a) were added and further incubated for 2 h at RT while shaking. Binding of GST-tagged recombinant BCL-2 family proteins was detected using an anti-GST antibody conjugated to Horse Radish Peroxidase. Signals were developed by reacting with ortho-phenylenediamine and the reaction was stopped with 4 M H₂SO₄ when the OD reached a value between 2 and 3.

[2] = molecular target: T1, GST-tagged recombinant human MCL-1 …; assay: ELISA: Alphabody (500 nM) captured by coated anti-V5 antibody; five-fold dilutions of GST-tagged protein detected with anti-GST antibody-HRP; OD 492/630 nm
Protocol: (§3) Alphabody (500 nM) was captured by immobilized anti-V5 antibody (5 microg/ml) to a microtiterplate. Binding of five-fold dilutions of Glutathione S transferase (GST)-tagged recombinant BCL-2 family proteins MCL-1, BCL-XL and BCL-2a was detected using a anti-GST antibody conjugated to Horse Radish Peroxidase. Plates were read at 492 nm and 630 nm.
as §2

[3] = molecular target: T2, GST-tagged recombinant human BCL-XL with a C-terminal deletion of 24 amino acids (human, UniProt Q07817 1-209); assay: as above
T2 construct: Produced in E. coli and purified by the GST tag; not shown: Glutathione S Transferase (GST) tag at the N-terminus

[4] = molecular target: T2, GST-tagged recombinant human BCL-XL …; assay: ELISA: Alphabody (500 nM) captured by coated anti-V5 antibody; five-fold dilutions of GST-BCL-XL detected with anti-GST antibody-HRP; OD 492/630 nm
Protocol: as §3, §2

[5] = molecular target: T2, GST-tagged recombinant human BCL-XL …; assay: ELISA: Alphabody (500 nM) captured by anti-V5 antibody, five-fold dilutions of GST-BCL-XL, anti-GST-HRP detection; printed as 'binding affinity'
Protocol: as §3, §2

[6] = molecular target: T3, GST-tagged recombinant human BCL-2 isoform alpha (BCL-2a) with a C-terminal deletion of 32 amino acids (human, UniProt P10415 1-207); assay: ELISA: Alphabody (500 nM) captured by anti-V5 antibody, five-fold dilutions of GST-BCL-2a, anti-GST-HRP detection; printed as 'binding affinity'
T3 construct: Produced in E. coli and purified by the GST tag; not shown: Glutathione S Transferase (GST) tag at the N-terminus

[7] = molecular target: T1, GST-tagged recombinant human MCL-1 …; assay: ELISA: Alphabody (500 nM) captured by coated anti-V5 antibody; five-fold dilutions of GST-MCL-1 detected with anti-GST antibody-HRP; OD 492/630 nm
Protocol: as §1, §2

[8] = molecular target: T4, MCL-1 in MCL-1 transfected HEK cell lysate (Santa Cruz) (UniProt Q07820 1-350, limits assumed); assay: dot blot: MCL-1 transfected HEK cell lysate spotted on nitrocellulose, incubated with Alphabody, detected with anti-His antibody-HRP
T4 construct: The target was spotted as a whole cell lysate on nitrocellulose, not as purified protein; also called MCL-1 cell lysate; Mcl-1 cell lysate
T4 sequence (Q07820 whole entry): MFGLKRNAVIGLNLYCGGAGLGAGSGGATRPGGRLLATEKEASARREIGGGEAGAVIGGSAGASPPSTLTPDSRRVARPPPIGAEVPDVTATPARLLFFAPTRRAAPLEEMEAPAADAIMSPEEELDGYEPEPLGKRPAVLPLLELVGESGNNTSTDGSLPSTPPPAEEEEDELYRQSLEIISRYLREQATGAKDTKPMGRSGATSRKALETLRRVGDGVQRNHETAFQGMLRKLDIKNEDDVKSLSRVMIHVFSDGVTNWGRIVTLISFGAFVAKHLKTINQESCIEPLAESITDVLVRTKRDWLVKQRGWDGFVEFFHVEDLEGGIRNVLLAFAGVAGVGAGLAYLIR

T2 sequence (Q07817 1-209, stated change not applied, form in doubt): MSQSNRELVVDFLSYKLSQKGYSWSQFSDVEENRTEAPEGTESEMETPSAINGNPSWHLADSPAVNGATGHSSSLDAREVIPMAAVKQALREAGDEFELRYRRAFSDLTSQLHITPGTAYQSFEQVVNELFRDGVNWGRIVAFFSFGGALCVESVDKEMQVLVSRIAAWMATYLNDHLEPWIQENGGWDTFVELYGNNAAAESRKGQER
T1 sequence (Q07820 172-327 limits assumed): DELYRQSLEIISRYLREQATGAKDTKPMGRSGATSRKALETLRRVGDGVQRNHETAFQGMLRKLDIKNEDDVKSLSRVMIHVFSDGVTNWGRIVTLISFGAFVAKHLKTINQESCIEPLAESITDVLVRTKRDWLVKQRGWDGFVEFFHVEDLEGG
T3 sequence (P10415 1-207, stated change not applied, form in doubt): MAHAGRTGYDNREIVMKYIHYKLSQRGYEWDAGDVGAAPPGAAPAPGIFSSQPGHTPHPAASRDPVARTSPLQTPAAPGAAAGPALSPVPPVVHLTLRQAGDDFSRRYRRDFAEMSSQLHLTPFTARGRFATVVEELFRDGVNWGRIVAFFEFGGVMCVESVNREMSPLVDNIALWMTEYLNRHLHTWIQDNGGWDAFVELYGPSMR

B1: AB1_pan_hiKR3-V5 (designed binder)
chain: MSIEEIQKQFKRIQKQIKRIAKQIKRMTGGSGGSGGMSIEEIAAQIAAIQLRIIGDQFNIYYMTGSGGGGSGGSIEEIKKSIRAIQKEIKKIQKKIKKMTPHHHHHHHHHHGKPIPNPLLGLDST
notes: Cationized Alphabody with C-terminal His-tag and V5 tag
Q: For B1, which Kd [1] is on record?
A: Its Kd is about 1.9 nM.

Q: What about the “EC50 (read off the curve)” value [2] of the same binder?
A: Its value is about 2 nM.

Q: What about the “EC50 (read off the curve)” value [3] of the same binder?
A: Its value is about 4 nM.

Q: What about the “EC50 (read off the curve)” value [4] of the same binder?
A: The value was about 4 nM.

Q: And the Kd [5]?
A: Its Kd is about 4.5 nM.

Q: And the Kd [6]?
A: Its Kd is about 18.7 nM.

Q: And the “EC50 (read off the curve)” value [7]?
A: Its value is about 2 nM.

B2: AB1_A2aF_hiKR3-V5 (designed binder)
chain: MSIQQIQKQFKRIQKQIKRIEKQIKRMTGGSGGSGGMSIEEITKQIAAIQLRIVGDQVQIYAMTGGSGGGSGGGSGGGSGGSIEEIKKSIRAIQKEIKKIQKKIKKMTPHHHHHHHHHHGKPIPNPLLGLDST
notes: Cationized MCL-1 Alphabody with C-terminal His-tag and V5 tag
Q: Which Kd [1] does the source give for B2 here?
A: Its Kd is 1 nM.

Q: What about the “EC50 (read off the curve)” value [7] of the same binder?
A: Its value is about 1 nM.

B3: tat-013 Alphabody (designed binder)
chain: YGRKKRRQRRRMSIEEIQKQIAAIQKQIAAIQKQIYAMTGGSGGGSGGGSGGGSGMSIEEIQKQIAAIQKQIAAIQKQIYAMTGGSGGGSGGGSGGGSGMSIEEIQKQIAAIQKQIAAIQKQIYAMTP
notes: also called tat-tagged control Alphabody scAB013
Q: Does B3 bind [8]?
A: Result: no binding (tested: 10 uM)

B4: MB23_hiR-V5 (designed binder)
chain: MSIEQIQKEITTIQEVIAAIQKYIYTMTGGSGGSGGMSIQQIQAAIRRIQRAIRRIQRAIRRMTGSGGGGSGMSIEEIQKQIAAIQEQIVAIYKQIMAMASHHHHHHGKPIPNPLLGLDST
notes: Cationized Alphabody directed against IL-23, used as the negative control; also called control Alphabody MB23_hiR-V5; cationized MB23
Q: Does B4 bind [7]?
A: Result: no binding (tested: 200 nM)
